From US20210040201A1 (Innovent, published 2021)
Numbering of substitutions follows the chain as printed.

T1: Human TIGIT expressed on the surface of cells (human, UniProt Q495A1 22-244)
T1 sequence: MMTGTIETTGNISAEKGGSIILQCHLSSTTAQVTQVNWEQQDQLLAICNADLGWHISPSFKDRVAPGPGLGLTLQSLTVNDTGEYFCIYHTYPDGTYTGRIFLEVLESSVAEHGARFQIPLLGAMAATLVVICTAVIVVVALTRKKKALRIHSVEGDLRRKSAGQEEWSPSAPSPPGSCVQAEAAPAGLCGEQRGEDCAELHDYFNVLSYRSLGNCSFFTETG

T2: Mouse TIGIT-his (ACRO, TIT-M52E6) (mouse, UniProt P86176 26-143, limits assumed)
T2 construct: Bought protein
T2 sequence (looked up): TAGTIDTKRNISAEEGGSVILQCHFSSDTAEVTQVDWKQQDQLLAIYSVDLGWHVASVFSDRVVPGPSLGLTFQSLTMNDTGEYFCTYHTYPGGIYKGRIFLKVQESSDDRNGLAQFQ

T3: Human TIGIT-his (ACRO, TIT-H52H3) (human, UniProt Q495A1 22-141)
T3 construct: Bought protein
T3 sequence: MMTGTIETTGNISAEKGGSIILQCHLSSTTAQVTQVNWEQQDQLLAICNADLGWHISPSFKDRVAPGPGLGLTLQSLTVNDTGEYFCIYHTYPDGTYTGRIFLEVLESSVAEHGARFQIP

B1: ADI-30286 (antibody, human IgG4 S228P, kappa, F234A L235A, V domains shown)
VH: EVQLLESGGGLVQPGGSLRLSCAASGFTFGPYGMSWVRQAPGKGLEWVSAISGSGASTWYADSVKGRFTISRDNSKNTLYLQMNSLRAEDTAVYYCAKDPGTHYSGYYYIWRYWGQGTLVTVSS
VL: EIVMTQSPATLSVSPGERATLSCRASQSVSSNLAWYQQKPGQAPRLLIYSASTRATGIPARFSGSGSGTEFTLTISSLQSEDFAVYYCQQYVPHPPFTFGGGTKVEIKR
B2: ADI-30288 (antibody, human IgG4 S228P, kappa, F234A L235A, V domains shown)
VH: B1 VH with Y60H, H103D, Y104S, S105T
VL: B1 VL
B3: ADI-30336 (antibody, human IgG4 S228P, kappa, F234A L235A, V domains shown)
VH: QLQLQESGPGLVKPSETLSLTCTVSGGSISSSRYYWGWIRQPPGKGLEWIGSIYYSGSTYYNPSLKSRVTISVDTSKNQFSLKLSSVTAADTAVYYCARDGLYHTPEYFQHWGQGTLVTVSS
VL: EIVLTQSPATLSLSPGERATLSCRASQSVSSYLAWYQQKPGQAPRLLIYDASNRATGIPARFSGSGSGTDFTLTISSLEPEDFAVYYCQQRFAHPYTFGGGTKVEIKR
notes: Intact antibody, expressed in yeast and also in CHO cells (the assay field says which)
B4: ADI-30268 (antibody, human IgG4 S228P, kappa, F234A L235A, V domains shown)
VH: QVQLVQSGAEVKKPGASVKVSCKASGYTFGSYYMGWVRQAPGQGLEWMGIIDPSGGRTSYARKFQGRVTMTRDTSTSTVYMELSSLRSEDTAVYYCARARTPSSWPYGMDVWGQGTTVTVSS
VL: DIQMTQSPSSLSASVGDRVTITCRASQSINSYLNWYQQKPGKAPKLLIYAASSLQSGVPSRFSGSGSGTDFTLTISSLQPEDFATYYCQQSLLTPFTFGGGTKVEIKR
B5: ADI-30293 (antibody, human IgG4 S228P, kappa, F234A L235A, V domains shown)
VH: EVQLVESGGGLVQPGGSLRLSCAASGFTFSSYSMNWVRQAPGKGLEWVSYISSSGTINYADSVKGRFTISRDNAKNSLYLQMNSLRAEDTAVYYCARHRIADSPSRAFDIWGQGTMVTVSS
VL: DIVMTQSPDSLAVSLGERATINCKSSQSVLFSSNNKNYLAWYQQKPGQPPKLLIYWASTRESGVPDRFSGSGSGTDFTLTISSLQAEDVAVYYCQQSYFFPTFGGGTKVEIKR
B6: ADI-30278 (antibody, human IgG4 S228P, kappa, F234A L235A, V domains shown)
VH: QVQLVQSGAEVKKPGASVKVSCKASGYTFTEYYMHWVRQAPGQGLEWMGIISPSAGSTKYAQKFQGRVTMTRDTSTSTVYMELSSLRSEDTAVYYCARDHDIRLAGRLADYWGQGTLVTVSS
VL: DIQMTQSPSSVSASVGDRVTITCRASQGISSWLAWYQQKPGKAPKLLISAASSLQSGVPSRFSGSGSGTDFTLTISSLQPEDFATYYCQQAVILPITFGGGTKVEIKR
notes: as for B3
B7: ADI-27243 (antibody, human IgG4 S228P, kappa, F234A L235A, V domains shown)
VH: B3 VH
VL: B3 VL with H94F
B8: ADI-30302 (antibody, human IgG4 S228P, kappa, F234A L235A, V domains shown)
VH: B3 VH with S30G, R33Q, Y55R, S58G
VL: B3 VL with H94F
B9: ADI-30311 (antibody, human IgG4 S228P, kappa, F234A L235A, V domains shown)
VH: QLQLQESGPGLVKPSETLSLTCTVSGGSIASSVYYWGWIRQPPGKGLEWIGSIYYSGSTWYNPSLKSRVTISVDTSKNQFSLKLSSVTAADTAVYYCAREAGRTGTGLLFDYWGQGTLVTVSS
VL: DIQMTQSPSTLSASVGDRVTITCRASQSISSWLAWYQQKPGKAPKLLIYKASSLESGVPSRFSGSGSGTEFTLTISSLQPDDFATYYCQQYGILPRTFGGGTKVEIKR
B10: ADI-27238 (antibody, human IgG4 S228P, kappa, F234A L235A, V domains shown)
VH: B4 VH with G30T, G35S, D52N, R57S, R62Q, T101Y
VL: B4 VL
B11: ADI-30267 (antibody, human IgG4 S228P, kappa, F234A L235A, V domains shown)
VH: B4 VH with G30R, G35S, Y60F, R62Q, T101Y, S103E
VL: B4 VL
B12: 10A7 (anti-human TIGIT reference antibody from Genentech) (antibody, V domains shown)
VH: EVQLVESGGGLTQPGKSLKLSCEASGFTFSSFTMHWVRQSPGKGLEWVAFIRSGSGIVFYADAVRGRFTISRDNAKNLLFLQMNDLKSEDTAMYYCARRPLGHNTFDSWGQGTLVTVSS
VL: DIVMTQSPSSLAVSPGEKVTMTCKSSQSLYYSGVKENLLAWYQQKPGQSPKLLIYYASIRFTGVPDRFTGSGSGTDYTLTITSVQAEDMGQYFCQQGINNPLTFGDGTKLEIKR
B13: ADI-30296 (antibody, human IgG4 S228P, kappa, F234A L235A, V domains shown)
VH: B5 VH with F29I, S30G, S31G, G55S, N58H, A101G, D102R
VL: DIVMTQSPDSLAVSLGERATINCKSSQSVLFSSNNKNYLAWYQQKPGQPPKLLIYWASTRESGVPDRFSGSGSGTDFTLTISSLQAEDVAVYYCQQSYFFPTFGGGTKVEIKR
B14: ADI-30272 (antibody, human IgG4 S228P, kappa, F234A L235A, V domains shown)
VH: B6 VH with K59S, R103A, L104A
VL: B6 VL
B15: ADI-27297 (antibody, human IgG4 S228P, kappa, F234A L235A, V domains shown)
VH: B6 VH with E31S, S52N, A55G, K59S, R103A, L104A
VL: B6 VL
B16: 22G2 (anti-human TIGIT reference antibody from BMS) (antibody, V domains shown)
VH: QVHLQESGPGLVKPSETLSLTCTVSGGSVSSGIYYWSWIRQPPGKGLEWIGYIYYSGSTNYNPSLKSRVTISVDTSKNQFSLKLSSVTAADTAVYYCARDYYVSGNYYNVDYYFFGVDVWGQGTTVTVSS
VL: EIVLTQSPATLSLSPGERATLSCRASQSVSSYLAWYQQKPGQAPRLLIYDASNRATGIPARFSGSGSGTDFTLTISSLEPEDFAVYYCQQRSNWPPLFTFGPGTKVDIK
B17: ADI-30306 (antibody, human IgG4 S228P, kappa, F234A L235A, V domains shown)
VH: B9 VH with A30S, V33L, W60F, L65F, T104G, G105T
VL: B9 VL
notes: as for B3

These binders were tested against T1, Human TIGIT expressed on the surface of … (assay: cell-based or functional assay).

EC50, MOA-based assay (luciferase reporter under IL2 promoter), CHO-expressed antibody [nM] | Binder
0.396 | B1
0.384 | B2
1.27 | B3
0.506 | B4
1.62 | B5
0.186 | B6

Target: T1, Human TIGIT expressed on the surface of …
Assay: cell-based or functional assay
Remark: another data set of the same source

EC50, MOA-based assay (luciferase reporter under IL2 promoter), yeast-expressed antibody [nM] | EC50, MOA-based assay (luciferase reporter under IL2 promoter) [nM] | Binder
297 |  | B7
3.33 |  | B3
0.983 |  | B8
1.82 |  | B9
68.7 |  | B10
2.06 |  | B11
1.22 |  | B4
 | ~77.8 | B12
1.56 |  | B5
1.09 |  | B13
1.49 |  | B14
0.523 |  | B6
~25100 |  | B15
 | 2.11 | B16

The binders below were run against T2, Mouse TIGIT-his (ACRO, TIT-M52E6) (assay: BLI (ForteBio), CHO-expressed antibody loaded on AHQ sensor).
Experimental: The sensor with loaded antibodies was exposed to 100 nM TIGIT-his antigens until to a plateau, and then transferred to an assay buffer for dissociation for at least 2 min to measure the dissociation rate. Kinetic analysis was performed using a 1:1 binding model.

binding result | Binder
no binding (tested: 100 nM TIGIT-his) | B3
no binding (tested: 100 nM TIGIT-his) | B17
no binding (tested: 100 nM TIGIT-his) | B6

What follows are binders tested against T1, Human TIGIT expressed on the surface of … (assay: flow cytometry on CHOS cells expressing human TIGIT; reference antibody).

EC50 [nM] | Binder
0.269 | B12
0.511 | B16

What follows are binders tested against T3, Human TIGIT-his (ACRO, TIT-H52H3) (assay: BLI (ForteBio), antibody loaded on AHQ sensor, 100 nM TIGIT-his, 1:1 model, monovalent).

Kd [nM] | Binder
3.5 | B16

What follows are binders tested against T4, Monkey TIGIT-his (ACRO, TIT-05223) (monkey) in the same assay as above.
T4 construct: Bought protein

Kd [nM] | Binder
4.2 | B16

The binders below were run against T1, Human TIGIT expressed on the surface of … (assay: flow cytometry on CHO cells overexpressing human TIGIT; reference antibody in the run with CHO-expressed antibodies).

EC50 [nM] | Binder
0.195 | B12
0.725 | B16

These binders were tested against T1, Human TIGIT expressed on the surface of … (assay: flow cytometry competition against 50 nM human CD155-mouse IgG2a Fc on CHOS cells expressing human TIGIT; positive control).

IC50 [nM] | Binder
0.741 | B12
0.179 | B16

Target: T1, Human TIGIT expressed on the surface of …
Assay: as above
Remark: another data set of the same source

IC50 [nM] | Binder
0.325 | B12
0.607 | B16
